# Results from the supplement of paper PMC9112550, “Optimization of the antimicrobial peptide Bac7 by deep mutational scanning” (BMC Biology, 2022).
# Tested on: Escherichia coli TOP10
# Test: shrunken log2 fold change of peptide-encoding DNA abundance (4.5 h post-induction vs induction); higher = less antimicrobial activity (less host growth inhibition)
# Conditions: time post-induction: 4.5 h; library: site-saturation at positions 5, 18, 19, 20
# 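Also: peptides expressed intracellularly from a pBAD plasmid library in pooled LB shake-flask culture, induced with 0.3% L-arabinose, DNA abundance read by NGS, three biological replicates, DESeq2 with apeglm shrinkage.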
row,Sequence,shrunken log2 fold change
1,RRIRSRPPRLPRPRPRPKYQPRP,-0.157
2,RRIRQRPPRLPRPRPRPHRAPRP,-0.137
3,RRIRERPPRLPRPRPRPVKTPRP,0.0285
4,RRIRFRPPRLPRPRPRPDQAPRP,-0.0167
5,RRIRWRPPRLPRPRPRPRDNPRP,0.0559
6,RRIRPRPPRLPRPRPRPHRLPRP,-0.0226
7,RRIRIRPPRLPRPRPRPTNAPRP,-0.0508
8,RRIRTRPPRLPRPRPRPGFTPRP,-0.0298
9,RRIRPRPPRLPRPRPRPSKNPRP,-0.333
10,RRIRKRPPRLPRPRPRPAHHPRP,-0.00814
11,RRIRTRPPRLPRPRPRPPSVPRP,0.352
12,RRIRIRPPRLPRPRPRPEKRPRP,-0.0249
13,RRIRRRPPRLPRPRPRPCEVPRP,-0.0207
14,RRIRIRPPRLPRPRPRPCQIPRP,-0.0429
15,RRIRSRPPRLPRPRPRPFTRPRP,0.0337
16,RRIRPRPPRLPRPRPRPHIMPRP,-0.663
17,RRIRARPPRLPRPRPRPNRKPRP,0.131
18,RRIRARPPRLPRPRPRPWPRPRP,0.992
19,RRIRFRPPRLPRPRPRPHHRPRP,-0.401
20,RRIRDRPPRLPRPRPRPKTFPRP,0.00972
21,RRIRIRPPRLPRPRPRPHWHPRP,-0.153
22,RRIRSRPPRLPRPRPRPMRNPRP,0.628

row,Sequence,shrunken log2 fold change
1,RRIRVRPPRLPRPRPRPSRHPRP,-0.0783
2,RRIRERPPRLPRPRPRPAQQPRP,-0.0516
3,RRIRCRPPRLPRPRPRPIFFPRP,-0.0793
4,RRIRIRPPRLPRPRPRPDLQPRP,-0.0567
5,RRIRSRPPRLPRPRPRPDNGPRP,-0.232
6,RRIRERPPRLPRPRPRPCLNPRP,-0.267
7,RRIRMRPPRLPRPRPRPEADPRP,0.136
8,RRIRRRPPRLPRPRPRPVALPRP,0.225
9,RRIRNRPPRLPRPRPRPCFTPRP,-0.733
10,RRIRYRPPRLPRPRPRPPATPRP,0.407
11,RRIRIRPPRLPRPRPRPHIEPRP,-0.0878
12,RRIRLRPPRLPRPRPRPVTAPRP,0.213
13,RRIRARPPRLPRPRPRPRHKPRP,0.316
14,RRIRGRPPRLPRPRPRPIVYPRP,-0.0951
15,RRIRWRPPRLPRPRPRPYRMPRP,0.0292
16,RRIRRRPPRLPRPRPRPFHFPRP,-0.413
17,RRIRCRPPRLPRPRPRPMSGPRP,0.198
18,RRIRARPPRLPRPRPRPCNRPRP,0.0805
19,RRIRRRPPRLPRPRPRPEMDPRP,0.186
20,RRIRERPPRLPRPRPRPGPWPRP,0.186
21,RRIRVRPPRLPRPRPRPSSMPRP,-0.157
22,RRIRQRPPRLPRPRPRPCCDPRP,-0.0081

row,Sequence,shrunken log2 fold change
1,RRIRERPPRLPRPRPRPVLPPRP,-0.0942
2,RRIRNRPPRLPRPRPRPMGDPRP,-0.00663
3,RRIRTRPPRLPRPRPRPVQYPRP,-0.246
4,RRIRSRPPRLPRPRPRPWQAPRP,0.214
5,RRIRHRPPRLPRPRPRPEHWPRP,0.237
6,RRIRPRPPRLPRPRPRPSTLPRP,-0.139
7,RRIRGRPPRLPRPRPRPQLWPRP,0.928
8,RRIRDRPPRLPRPRPRPYQCPRP,-0.00205
9,RRIRHRPPRLPRPRPRPMWDPRP,-0.0134
10,RRIRKRPPRLPRPRPRPHPPPRP,1.27
11,RRIRLRPPRLPRPRPRPYFNPRP,-1.13
12,RRIRYRPPRLPRPRPRPEFNPRP,-0.221
13,RRIRCRPPRLPRPRPRPNHQPRP,-0.421
14,RRIRKRPPRLPRPRPRPTIQPRP,-0.0129
15,RRIRVRPPRLPRPRPRPHLYPRP,-0.309
16,RRIRCRPPRLPRPRPRPSSEPRP,-0.284
17,RRIRQRPPRLPRPRPRPESPPRP,0.0606
18,RRIRIRPPRLPRPRPRPEYLPRP,0.0178
19,RRIRYRPPRLPRPRPRPYIYPRP,-2.06
20,RRIRNRPPRLPRPRPRPKTKPRP,-0.0202
21,RRIRKRPPRLPRPRPRPHVNPRP,0.0388
22,RRIRNRPPRLPRPRPRPKITPRP,-0.367

row,Sequence,shrunken log2 fold change
1,RRIRARPPRLPRPRPRPGNAPRP,0.73
2,RRIRHRPPRLPRPRPRPATPPRP,0.299
3,RRIRGRPPRLPRPRPRPRQPPRP,0.283
4,RRIRNRPPRLPRPRPRPQSQPRP,-0.7
5,RRIRLRPPRLPRPRPRPTASPRP,0.0857
6,RRIRWRPPRLPRPRPRPENTPRP,0.167
7,RRIRTRPPRLPRPRPRPRYDPRP,-0.123
8,RRIRRRPPRLPRPRPRPIQVPRP,-0.0268
9,RRIRCRPPRLPRPRPRPCQQPRP,-0.0438
10,RRIRLRPPRLPRPRPRPCGFPRP,-0.0181
11,RRIRQRPPRLPRPRPRPLKFPRP,-0.27
12,RRIRKRPPRLPRPRPRPYTSPRP,-0.05
13,RRIRNRPPRLPRPRPRPTINPRP,-0.515
14,RRIRGRPPRLPRPRPRPECHPRP,1.62
15,RRIRYRPPRLPRPRPRPVCGPRP,-0.463
16,RRIRMRPPRLPRPRPRPNTTPRP,0.191
17,RRIRDRPPRLPRPRPRPMMTPRP,0.395
18,RRIRTRPPRLPRPRPRPGTPPRP,0.0833
19,RRIRGRPPRLPRPRPRPVCRPRP,0.802
20,RRIRGRPPRLPRPRPRPQDWPRP,0.639
21,RRIRERPPRLPRPRPRPDSFPRP,0.0952
22,RRIRSRPPRLPRPRPRPQHWPRP,0.015

row,Sequence,shrunken log2 fold change
1,RRIRMRPPRLPRPRPRPLWRPRP,0.704
2,RRIRARPPRLPRPRPRPCAQPRP,0.483
3,RRIRWRPPRLPRPRPRPICWPRP,0.646
4,RRIRDRPPRLPRPRPRPMMAPRP,-0.00174
5,RRIRFRPPRLPRPRPRPMMQPRP,-0.297
6,RRIRVRPPRLPRPRPRPLCFPRP,0.258
7,RRIRARPPRLPRPRPRPLPEPRP,0.542
8,RRIRHRPPRLPRPRPRPMDTPRP,0.03
9,RRIRYRPPRLPRPRPRPQHTPRP,-0.671
10,RRIRWRPPRLPRPRPRPKSGPRP,-0.0248
11,RRIRIRPPRLPRPRPRPCSDPRP,-0.0062
12,RRIRNRPPRLPRPRPRPQPQPRP,-0.0877
13,RRIRQRPPRLPRPRPRPYMNPRP,-0.155
14,RRIRRRPPRLPRPRPRPMTFPRP,0.164
15,RRIRSRPPRLPRPRPRPRFRPRP,0.203
16,RRIRRRPPRLPRPRPRPGVLPRP,0.465
17,RRIRQRPPRLPRPRPRPKPGPRP,0.285
18,RRIRVRPPRLPRPRPRPAAGPRP,0.154
19,RRIRTRPPRLPRPRPRPITYPRP,-0.0511
20,RRIRMRPPRLPRPRPRPLRGPRP,2.15
21,RRIRYRPPRLPRPRPRPGNFPRP,-0.307
